Data taken from publication PMC5883314, “Soluble expression of an amebic cysteine protease in the cytoplasm of Escherichia coli SHuffle Express cells and purification of active enzyme” (BMC Biotechnology, 2018).

Assays:
[1] = target: T1, EhCP1 (Cysteine Protease 1 of Entamoeba histolytica) (Entamoeba histolytica, UniProt Q01957); assay: inhibition of purified recombinant enzyme, hydrolysis of Z-Arg-Arg-pNA and Z-Arg-Arg-AMC; format: biochemical
T1 construct: gene CP1; pro-mature polypeptide (Ile14 to Leu315), N-terminal hexahistidine tag

[2] = system: Cc1cc(=O)oc2cc(NC(=O)[C@H](CCCNC(=N)N)NC(=O)[C@H](CCCNC(=N)N)NC(=O)OCc3ccccc3)ccc12; assay: purified protein
[3] = system: N=C(N)NCCC[C@H](NC(=O)OCc1ccccc1)C(=O)N[C@@H](CCCNC(=N)N)C(=O)Nc1ccc([N+](=O)[O-])cc1; assay: purified protein

T1 sequence (Q01957 14-315): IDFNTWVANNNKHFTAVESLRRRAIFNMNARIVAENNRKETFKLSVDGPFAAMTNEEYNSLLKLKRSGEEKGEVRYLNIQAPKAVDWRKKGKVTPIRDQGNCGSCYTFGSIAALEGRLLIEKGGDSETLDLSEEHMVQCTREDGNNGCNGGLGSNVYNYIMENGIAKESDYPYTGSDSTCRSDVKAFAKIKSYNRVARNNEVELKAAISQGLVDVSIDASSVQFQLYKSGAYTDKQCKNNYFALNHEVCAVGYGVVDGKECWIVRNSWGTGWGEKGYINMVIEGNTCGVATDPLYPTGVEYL

| Compound | IC50 [1] [nM] | Km [2] [µM] | Km [3] [µM] |
| --- | --- | --- | --- |
| CC(C)C[C@H](NC(=O)[C@H]1O[C@@H]1C(=O)O)C(=O)NCCCCN=C(N)N [E-64, L-trans-3-carboxyoxiran-2-carbonyl-L-leucylagmatine] | 1000 |  |  |
| EhCP1 (Cysteine Protease 1 of Entamoeba histolytica) (Entamoeba histolytica HM-1:IMSS) |  | 6.7 | 57.1 |
